Stoichiometry N data for one substance are collected here from paper PMC9581112.

In the test the target is Pyruvate kinase M2 (PKM2) (human (endogenous in MDA-MB-231 and MCF-7)) (UniProt P14618). The test can be described thus: native gel or EMSA. For orientation: A gel shift assay detects complexes by their altered migration in electrophoresis.

Pyruvate kinase M2 (PKM2), P14618 1-531 (enzyme; other documents disagree on this pair), sequence (P14618 whole entry): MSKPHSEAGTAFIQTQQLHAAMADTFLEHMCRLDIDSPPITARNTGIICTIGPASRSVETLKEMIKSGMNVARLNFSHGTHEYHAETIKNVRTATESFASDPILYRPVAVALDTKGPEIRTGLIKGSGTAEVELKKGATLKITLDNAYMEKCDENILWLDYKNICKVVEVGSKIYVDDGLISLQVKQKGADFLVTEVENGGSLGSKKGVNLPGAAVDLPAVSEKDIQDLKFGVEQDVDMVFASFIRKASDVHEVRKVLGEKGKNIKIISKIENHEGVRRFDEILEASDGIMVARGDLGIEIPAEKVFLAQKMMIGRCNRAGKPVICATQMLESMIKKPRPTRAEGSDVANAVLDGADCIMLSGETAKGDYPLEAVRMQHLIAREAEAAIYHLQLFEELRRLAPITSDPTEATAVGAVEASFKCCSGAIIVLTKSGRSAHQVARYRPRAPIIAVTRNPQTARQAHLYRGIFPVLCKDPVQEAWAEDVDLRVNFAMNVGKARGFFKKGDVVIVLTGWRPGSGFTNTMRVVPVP

As for “Pyruvate kinase M2 (PKM2), P14618 1-531 (enzyme; other documents disagree on this pair)”, the stoichiometry N (in general, a count of units in the complex or per binding partner) was found to be 2.
